# Assay results reported in US10221404B2, “Method for modifying characteristics of a lipase” (Novozymes A/S, priority 2014, dated 2019).
# Legend:
# [1] = Hydrolytic activity, kinetic assay with p-nitrophenyl acyl esters; type: biochemical; conditions: substrates C3, C6, C10, C12, C16 at 1 mM; 50 mM Tris pH 7.7, 0.4% TritonX-100; 405 nm for 5 minutes
# Protocol: The hydrolytic activity of RmL with and without propeptide on various fatty acids was investigated in a kinetic assay using p-nitrophenyl acyl esters as substrate. The 100 mM stock solutions in DMSO of the substrates: p-Nitrophenyl butyrate (C3), p-Nitrophenyl caproate (C6), p-Nitrophenyl caprate (C10), p-Nitrophenyl laurate (C12) and p-Nitrophenyl palmitate (C16) (all from Sigma-Aldrich Danmark NS, Kirkebjerg Allé 84, 2605 Brondby; Cat. no.: C3:N-9876, C6: N-0502, C10: N-0252, C12: N-2002, C16: N-2752) were diluted to a final concentration of 1 mM into assay buffer (50 mM Tris; pH 7.7; 0.4% TritonX-100).
# RmL with and without propeptide and appropriate controls: Buffer (negative), Lipex™ (positive) RmL with and without propeptide in 50 mM Hepes pH8.0; 10 ppm TritonX-100; 20 mM CaCl2 were added to the substrate solution in the following final concentrations: 0.01 mg/mL; 5×10^−3 mg/mL; […]; and 1.25×10^−4 mg/mL in 96-well NUNC plates (Cat. No: 260836, Kamstrupvej 90, DK-4000, Roskilde). Release of p-nitrophenol by hydrolysis of p-nitrophenyl acyl was monitored at 405 nm for 5 minutes in 10 second intervals on a Spectra max 190 (Molecular Devices GmbH, Bismarckring 39, 88400 Biberach an der Riss, GERMANY).
# [2] = AMSA wash performance after activation with detergent and/or protease; parameters: key to No (RP) / Det (RP) / Sav (RP) / Det + Sav (RP): wash performance relative to reference lipase (Lipolase), RP ratio
# Protocol: (§1) Washing experiments were performed using Automatic Mechanical Stress Assay (AMSA) in order to assess the wash performance in laundry. The AMSA plate has a number of slots for test solutions and a lid firmly squeezing the laundry sample, the textile to be washed against all the slot openings. During the washing time, the plate, test solutions, textile and lid were vigorously shaken to bring the test solution in contact with the textile and apply mechanical stress in a regular, periodic oscillating manner. For further description see WO02/42740 especially the paragraph “Special method embodiments” at page 23-24.
# (§2) The laundry experiments were conducted in Model Detergent B, pH8. The experimental conditions are specified below:
# (§3) Final adjustments to the specified pH were done with NaOH or citric acid. Water hardness was adjusted to 15° dH by addition of CaCl2 and MgCl2 (Ca^2+:Mg^2+=4:1) to the test system.
# (§4) After washing the textiles were flushed in tap water and excess water was removed from the textiles using filter paper and immediately thereafter the textiles were dried at 85° C. for 5 min.
# (§5) The wash performance was measured as the color change of the washed soiled textile. The soil was cream mixed with turmeric. Turmeric contains the colorant curcumin, which function as a pH indicator by having pH dependent color change. Lipase activity leads to release of free fatty acids from the cream acylglycerides and this leads to pH decrease and thereby color change of the curcumin pH indicator. Lipase wash performance can therefore be expressed as the extent of color change of light reflected-emitted from the washed soiled textile when illuminated with white light.
# (§6) Color measurements were made with a professional flatbed scanner (EPSON EXPRESSION 10000XL, Atea NS, Lautrupvang 6, 2750 Ballerup, Denmark), which was used to capture an image of the washed soiled textile. To extract a value for the light intensity from the scanned images, 24-bit pixel values from the image were converted into values for red, green and blue (RGB).
# (§7) Color change due to lipase activity was measured as the increase in the reflection-emitting of green light (G) relative to the sum of reflected-emitted blue (B) and red (R) light. The wash performance (RP(Wash)) of a lipase relative to a reference lipase (Lipolase™) was calculated as: RP(Wash)=(G/(B+R)(tested lipase)−G/(B+R)(no enzyme))/(G/(B+R)(lipase ref.)−G/(B+R)(no enzyme)).
# Wild type RmL without or with propeptide respectively were submitted to no, detergent, protease or detergent+protease treatment prior to performance test in AMSA to test the activation level of the lipase after the treatment. […] […] Wash performance of all samples were determined by Automatic Mechanical Stress Assay (AMSA) as described above.
# [3] = AMSA wash performance, specificity of inhibitory effect of propeptide; conditions: for With inhibitor RP (wash): propeptide SEQ ID No: 4 in 320:1 molar ratio, 3 hours at 4° C., normalized to wash performance without inhibitor; for No inhibitor RP (wash): without propeptide SEQ ID No: 4, normalized per lipase
# Protocol: as §1, §2, §3, §4, §5, §6, §7
# The inhibitory specificity of the isolated propeptide was determined by mixing the isolated propeptide in a 320:1 molar ratio with 5 different lipases including the active RmL. All enzymes were diluted in 10 mM succinic acid buffer, pH6.5, to a concentration of 1.5 uM and were mixed (1:1) with purified propeptide dilutions. After 3 hours incubation at 4° C. the lipase performance of the incubated lipase-inhibitor samples were determined by Automatic Mechanical Stress Assay (AMSA) as described above. The relative wash performance “RP(wash)” is for each lipase normalized to the wash performance without inhibitor.
molecule,measurement,setting,value
"RmL with propeptide: Rhizomucor miehei lipase with its native N-terminal propeptide non-covalently bound (inactive RmL) (protein, UniProt P19515 25-363, looked up, pro-form) pro-form: VPIKRQSNSTVDSLPPLIPSRTSAPSSSPSTTDPEAPAMSRNGPLPSDVETKYGMALNATSYPDSVVQAMSIDGGIRAATSQEINELTYYTTLSANSYCRTVIPGATWDCIHCDATEDLKIIKTWSTLIYDTNAMVARGDSEKTIYIVFRGSSSIRNWIADLTFVPVSYPPVSGTKVHKGFLDSYGEVQNELVATVLDQFKQYPSYKVAVTGHSLGGATALLCALDLYQREEGLSSSNLFLYTQGQPRVGDPAFANYVVSTGIPYRRTVNERDIVPHLPPAAFGFLHAGEEYWITDNSPETVQVCTSDLETSDCSNSIVPFTSVLDHLSYFGINTGLCT",hydrolytic activity on p-nitrophenyl acyl esters,[1],no activity
same,Sav (RP),[2]; 10 minutes in 1.35% (v/v) Savinase in 10 mM succinic acid pH6.5,0.27
same,Det + Sav (RP),[2]; 10 minutes in 1.35% (v/v) Savinase in 77% (w/w) Detergent B,0.88
same,Det (RP),[2]; 10 minutes in 77% (w/w) Model detergent B,0.60
same,No (RP),[2]; 60 minutes in 10 mM succinic acid pH6.5,0.18
same,Sav (RP),[2]; 60 minutes in 1.35% (v/v) Savinase in 10 mM succinic acid pH6.5,0.39
same,Det + Sav (RP),[2]; 60 minutes in 1.35% (v/v) Savinase in 77% (w/w) Detergent B,0.85
same,Det (RP),[2]; 60 minutes in 77% (w/w) Model detergent B,0.69
same,activation level of the lipase,"[2]; Savinase treatment in detergent, after 10 minutes",full activation
"isolated propeptide: propeptide of RmL, amino acid sequence SEQ ID No: 4, purified from RmL (protein, listed as Rhizomucor miehei) VPIKRQSNSTVDSLPPLIPSRTSAPSSSPSTTDPEAPAMSRNGPLPSDVETKYGMALNATSYPDSVVQAM",inhibitory specificity of the isolated propeptide,[3]; 320:1 molar ratio with different lipases,exclusively effect with RmL
"SEQ ID NO: 5 (Lipex): commercial lipase product Lipex (Novozymes A/S), SEQ ID NO: 5 (protein, listed as Thermomyces lanuginosus) EVSQDLFNQFNLFAQYSAAAYCGKNNDAPAGTNITCTGNACPEVEKADATFLYSFEDSGVGDVTGFLALDNTNKLIVLSFRGSRSIENWIGNLNFDLKEINDICSGCRGHDGFTSSWRSVADTLRQKVEDAVREHPDYRVVFTGHSLGGALATVAGADLRGNGYDIDVFSYGAPRVGNRAFAEFLTVQTGGTLYRITHTNDIVPRLPPREFGYSHSSPEYWIKSGTLVPVRRRDIVKIEGIDATGGNNQPNIPDIPAHLWYFGLIGTCL",With inhibitor RP (wash),[3],0.89
same,No inhibitor RP (wash),[3],1.00
"SEQ ID NO: 6 (MuciLip2CN): lipase of SEQ ID NO: 6, tested for propeptide specificity (protein, Mucor circinelloides) MVSFVSISQGISLFIVVSSMLTGSAHAAPASSHSNSSKNATTSDASTFTLPPIISSRVTPPKVPSGSHNVEDANVAKNKKWFEAHGGKLNVTKRADETVGGYTMDLPSNAPPLPAVPSTSTVVIASTAQISEFKKYAGIASTAYCRSVVPLNQWSCTNCLKFVPDGKLIKTFTSLVTDTNGFVLRSDAQKTIYVVFRGTNSIRSAITDLVFELTNYTPVSGAKVHTGFYASYKAVVSDYFPAVQSQLTAYPGYKVIVTGHSLGGAQALLAGMDLYQREPRLSKSNLAIYTVGCPRVGNPAFAYYVDSTGITFSRSVNNRDIVPHVPPQAWGFLHPGVEAWARSSSNVQICTPNIETGLCSNSIVPFTSFTDHLTYYDLNEGLCL",With inhibitor RP (wash),[3],1.10
same,No inhibitor RP (wash),[3],1.00
"SEQ ID NO: 7 (RhimiLip1): lipase of SEQ ID NO: 7, tested for propeptide specificity (protein, Rhizopus microsporus var. chinensis) MVSFISISQGVSLCLLVSSMMLGSSAVPVAGHKGSVKATNGTDFQLPPLISSRCTPPSHPETTGDPDAEAYYINKSVQWYQAHGGNYTALIKRDTETVGGMTLDLPENPPPIPATSTAPSSDSGEVVTATAAQIKELTNYAGVAATAYCRSVVPGTKWDCKQCLKYVPDGKLIKTFTSLLTDTNGFILRSDAQKTIYVTFRGTNSFRSAITDMVFTFTDYSPVKGAKVHAGFLSSYNQVVKDYFPVVQDQLTAYPDYKVIVTGHSLGGAQALLAGMDLYQREKRLSPKNLSIYTVGCPRVGNNAFAYYVDSTGIPFHRTVHKRDIVPHVPPQAFGYLHPGVESWIKEDPADVQICTSNIETKQCSNSIVPFTSIADHLTYFGINEGSCL",With inhibitor RP (wash),[3],0.92
same,No inhibitor RP (wash),[3],1.00
